# B1: A-16 (antibody, V domains shown)
# VH: QVQLVESGGGLVQPGRSLRLSCAASGFTFDDYAMHWVRQAPGKGLEWVSGISWNSGTIGYADSVKGRFIISRDNAKNSLYLQMNSLRGEDMALYYCGKDRKREDPSLGGMDVWGQGTTVTVSS
# VL: SYELTQPPSVSVAPGQTARITCGGNNIGSKSVHWYQQKPGQAPVLVVYDDTDRPSGIPERFSGSNSGNTATLTISRVEAGDEADYYCQVWDSSSDHYVFGTGTKLTVL
# B2: A-18 (antibody, V domains shown)
# VH: EVQLLESGGGLVQPGGSLRLSCAASGFTFSRYWMHWVRQAPGKGLVWVSRINSDGSSTTYADSVKGRFTISRDNAKNTLYLQMNSLRAEDTAVYYCARELYYYDSRGAEEGEGWFDPWGQGTLVTVSS
# VL: QSVLTQPPSVSGAPGQRVTISCTGISSNIGAGYDVHWYQQLPGTAPKLLIYGNSNRPSGVPDRFSASKSGTSAPLAITGLQAEDEADYYCQSSDRSLSGSVFGTGTKLTVL
# B3: A-6 (antibody, V domains shown)
# VH: QVQLVQSGGGVVQPGRSLRLSCAASGFTFSNFAMHWVRQAPGKGLEWVAVILYDGINKYYADSVKGRFTISRGNSKNTLSLQMNSLRAEDTAVYYCARAQNYYDRSGTLQLDAFDIWGQGTMVTVSS
# VL: DIVMTQSPSSLSASVGDRVTITCRASQGIRNDLGWYQQKPGKAPKLLIYAASSLQSGVPSRFSGSGSGTDFTLTISSLQPEDFATYYCLQDYNYPLTFGGGTKVEIK
# B4: A-9 (antibody, V domains shown)
# VH: EVQLVESGGGLVKPGRSLRLSCAASGFTFADYAMSWFRQAPGKGLEWVGFIRSKPYGGTTEYAASVKGRFTISRDDSKSIAYLQMNSLKTEDTAVYYCSRDPWYCSGGDCYAVTGSWFDPWGQGTLVTVSS
# VL: DIVLTQSPSSLSASVGDRVTITCQASQDIKKYLNWYQQKPGKAPKLLIYDVSNLETGVPSRFSGSGSGTDFTFTISSLQPEDVAIYYCQQYDNLPQTFGQGTKVDIK
# B5: A-22 (antibody, V domains shown)
# VH: not shown
# VL: EIVLTQSPGTLSLSPGERATLSCRASQTVRSDLAWYQQKPGQAPRLLIYGASTRATDISDRFSGSGSGTEFTLTISSLQSEDFAVYYCQQYYEWPPHSDSFGGGTKVEIK
# Target: SARS-CoV-2 RBD-mFc (SARS-CoV-2, UniProt P0DTC2 319-541)
# Assay: Octet BLI, IgG, avid
row,Binder,Kd [nM]
1,B1,0.081
2,B2,0.0757
3,B3,0.146
4,B4,0.147

# Target: SARS-CoV-2 Alpha (B.1.1.7) spike protein (on reporter virus particles) (SARS-CoV-2, UniProt P0DTC2 14-1273)
# Assay: cell-based or functional assay
Binder,PsV neutralization IC50 [µg/mL],PsV neutralization IC90 [µg/mL]
B1,0.025,0.329
B5,1.53,9.54
B2,0.316,2.04
B3,0.192,1.21
B4,0.019,0.118

# Target: SARS-CoV-2 Beta (B.1.351) spike protein (on reporter virus particles) (SARS-CoV-2, UniProt P0DTC2 14-1273)
# Assay: cell-based or functional assay
Binder,PsV neutralization IC50 [µg/mL],PsV neutralization IC90 [µg/mL]
B1,0.103,0.905
B5,2.13,12.8
B2,0.259,1.65
B3,0.171,1.47
B4,0.028,0.184

# Target: SARS-CoV-2 Epsilon (B.1.427/429) spike protein (on reporter virus particles) (SARS-CoV-2, UniProt P0DTC2 14-1273)
# Assay: cell-based or functional assay
Binder,PsV neutralization IC50 [µg/mL],PsV neutralization IC90 [µg/mL]
B5,1.49,25.3

# Target: SARS-CoV-2 Gamma (P.1) spike protein (on reporter virus particles) (SARS-CoV-2, UniProt P0DTC2 14-1273)
# Assay: cell-based or functional assay
Binder,PsV neutralization IC50 [µg/mL],PsV neutralization IC90 [µg/mL]
B5,0.335,0.736

# Target: SARS-CoV-2 Omicron (B.1.529) spike protein (on reporter virus particles) (SARS-CoV-2, UniProt P0DTC2 14-1273)
# Assay: cell-based or functional assay
Binder,"PsV IC50, Test 1 [nM]","PsV IC50, Test 2 [nM]"
B1,0.19,
B2,1.96,8.84
B4,20.8,

# Target: SARS-CoV-2 B.1.1.7 N501Y (Alpha) RBD (SARS-CoV-2, UniProt P0DTC2 319-541)
# Assay: Octet BLI single point, monovalent
row,Binder,Kd [nM]
1,B1,4.62
2,B5,0.35
3,B2,1.03
4,B3,1.46
5,B4,10

# Target: SARS-CoV-2 B.1.351 (Beta) RBD (SARS-CoV-2, UniProt P0DTC2 319-541)
# Assay: Octet BLI single point, monovalent
row,Binder,Kd [nM]
1,B1,6.05
2,B5,0.25
3,B2,0.444
4,B4,17.8

# Target: SARS-CoV-2 P.1 Spike (Gamma) (SARS-CoV-2, UniProt P0DTC2 16-1213)
# Assay: Octet BLI single point, monovalent
row,Binder,Kd [nM]
1,B1,4.83
2,B5,0.258
3,B2,0.553
4,B3,2.05
5,B4,15

# Target: SARS-CoV-2 B.1.617.2 (Delta) RBD (SARS-CoV-2, UniProt P0DTC2 319-541)
# Assay: Octet BLI single point, monovalent
row,Binder,Kd [nM]
1,B2,0.649
2,B4,12.9

# Target: SARS-CoV-2 L452R RBD (Epsilon) (SARS-CoV-2, UniProt P0DTC2 319-541)
# Assay: Octet BLI single point, monovalent
row,Binder,Kd [nM]
1,B5,0.756
2,B2,1.22
3,B3,1.45

# Target: SARS-CoV-2 B.1.617.1 (Kappa) RBD (SARS-CoV-2, UniProt P0DTC2 319-541)
# Assay: Octet BLI single point, monovalent
row,Binder,Kd [nM]
1,B5,0.218
2,B2,0.714
3,B4,6.28

# Source: US20260217797A1 (Takeda / Millennium, published 2026)
